Reference: the supplement of paper PMC10126150
± gives the standard deviation of the averaged measurements.

system: ATP; assay: switch fluorescence ratio, 500 uM ATP over buffer (Cy3 cluster intensity, sum of 5 cycles each) (fold (ratio)); higher = stronger signal-on switching upon ATP binding; sequences stand for … in TCGTCGGCAGCGTCAGATGTGTATAAGAGACAGTTTTTTTTTTTTTTTTTTTTTTTTT…TC; conditions: aptamer strand: ATP DNA aptamer (quencher-CACCTGGGGGAGTATTGCGGAGGAAGG + anchor), 100 nM annealed; ATP concentration: 500 uM
How it was run: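 Clusters carrying Cy3-labelled switching strands on a modified Illumina MiSeq flow-cell were annealed to 100 nM quencher-labelled ATP aptamer and imaged in selection buffer. They were imaged again after 15 min with 500 uM ATP at 22 °C, over five buffer/ATP cycles with NaOH stripping and re-annealing in between. For each cluster, the fluorescence ratio is the summed Cy3 intensity of the target cycles divided by that of the buffer cycles, averaged per switch-domain sequence. Clusters outside 100-1000 RFU were left out.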
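Further: ATP exposure 15 min at 22 °C before imaging.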

Row | Sequence | switch fluorescence ratio
1 | GTGAGGTGTG | 1.001 ± 0.009
2 | GTTCTATGGT | 0.998 ± 0.022
3 | ATCGGTCCTT | 1.03 ± 0.027
4 | TGCCTCTAGA | 1.1 ± 0.044
5 | GGAAACGGGT | 1.02 ± 0.014
6 | GGAGAATTTA | 1.02 ± 0.034
7 | TGAAGGGACG | 1.02 ± 0.015
8 | CGGGTGAGTT | 1.15 ± 0.25
9 | ATTTTATTTG | 1.06 ± 0.056
10 | CAATGCGACA | 1.39 ± 0.078
11 | ATTAATGCGG | 1.07 ± 0.032
12 | CTCTTAGGGG | 1.12 ± 0.16
13 | TGTCTAGTTA | 0.972 ± 0.0041
14 | TAAGGAAGGA | 0.9919 ± 0.0054
15 | GACTATCGGA | 1.03 ± 0.013
16 | TGGTGCTGTT | 0.985 ± 0.03
17 | GGTTTGCGCT | 1.004 ± 0.0076
18 | GATGATTATT | 0.9856 ± 0.0018
19 | GAGGGCACGA | 1.09 ± 0.086
20 | TTATGTGAGA | 1.01 ± 0.044
21 | TGTAAGGATG | 0.996 ± 0.013
22 | TAATCGTGGG | 1.02 ± 0.011
23 | TTTTAGGAGC | 0.985 ± 0.023
24 | AAGGAGGATT | 1 ± 0.028
25 | TTGGCCGTGT | 1.02 ± 0.028

Row | Sequence | switch fluorescence ratio
26 | TCTTCACTAC | 1.25 ± 0.06
27 | AGAGACCAGC | 1.07 ± 0.028
28 | TTCCAGGCAA | 4.47 ± 0.45
29 | GCCGGGGTGA | 1.04 ± 0.043
30 | TTATTACCGA | 1.056 ± 0.0098
31 | ATTTTGCAAT | 1.27 ± 0.037
32 | GTGGCTTTAT | 1.01 ± 0.013
33 | CTGCTCGGTG | 0.987 ± 0.062
34 | TTGGGGTAG | 1.02 ± 0.033
35 | GCTAGTGGTG | 1.04 ± 0.018
36 | CTGCTAGGTA | 0.9975 ± 0.0027
37 | TGGTTTTAGG | 0.99 ± 0.029
38 | TTGTGAGGGT | 0.981 ± 0.033
39 | AGAGGTTACG | 0.994 ± 0.046
40 | ACGGAAGTTA | 1.02 ± 0.025
41 | AACTAGGGGA | 1.11 ± 0.13
42 | TGACTGGGAA | 1.06 ± 0.091
43 | TTGCGGGGCC | 1.04 ± 0.051
44 | AGGATAAAGG | 1.03 ± 0.036
45 | AAGGCAAATA | 1.04 ± 0.037
46 | AGGGTTGCGA | 1.02 ± 0.025
47 | CGCGAAGAAC | 1.039 ± 0.0088
48 | CGCAGGGGGA | 1.033 ± 0.008
49 | ATGAGCAAGA | 1.49 ± 0.015
50 | TTTATTTATG | 1.007 ± 0.0065

Row | Sequence | switch fluorescence ratio
51 | GCAGGGCGCC | 1.01 ± 0.026
52 | GCTGCGGGTC | 1.02 ± 0.033
53 | GGACACGTTG | 1.05 ± 0.083
54 | GCTTTTTGGC | 1.03 ± 0.063
55 | AATATTTCGC | 1.02 ± 0.018
56 | TCCAGGGGAA | 1.03 ± 0.014
57 | GCTTAATTAG | 1.02 ± 0.017
58 | GTTAGAGTAT | 1 ± 0.012
59 | TGCAGACGGT | 1.2 ± 0.14
60 | ATGTGTCTTT | 0.979 ± 0.03
61 | GTTAACGACG | 1.017 ± 0.0068
62 | GAGTCAATTT | 1.0118 ± 0.00063
63 | CGTGTTCGCT | 0.9921 ± 0.0016
64 | TATTTCGCGG | 0.993 ± 0.045
65 | AGCATGTCGT | 1.01 ± 0.015
66 | AAGAGGAAAA | 1 ± 0.024
67 | ACTTGGACGT | 1.05 ± 0.048
68 | CGGGACGTTT | 1.01 ± 0.013
69 | TAACAGTGGG | 1.02 ± 0.046
70 | GTGACAGGTG | 1.47 ± 0.053
71 | CGTGGGTGTT | 0.946 ± 0.015
72 | GTTTCATGAA | 1.01 ± 0.018
73 | GGGGGGTCTC | 0.996 ± 0.029
74 | GCTATGAGAC | 1.03 ± 0.055
75 | TGATTTGCGA | 0.987 ± 0.02

Row | Sequence | switch fluorescence ratio
76 | ATTGTGGGAC | 0.996 ± 0.077
77 | TCCCGAGGGG | 1.083 ± 0.01
78 | ATTTTTTCGC | 0.995 ± 0.015
79 | CTTTAATTTT | 1.01 ± 0.055
80 | GGGGCGGACT | 0.952 ± 0.04
81 | ATATCGGGGT | 1.001 ± 0.0045
82 | CGAAGATCGA | 0.982 ± 0.042
83 | ACCAGTAGGT | 1.01 ± 0.035
84 | CATACGGGTA | 1.042 ± 0.00018
85 | TGTTTGAAAT | 0.998 ± 0.034
86 | AGCGGGGCGC | 1.01 ± 0.069
87 | AATATTGGAT | 1.01 ± 0.023
88 | CAAGTCTATG | 0.973 ± 0.036
89 | AACTTTAGTG | 0.991 ± 0.013
90 | TCTTTACAGG | 1.09 ± 0.067
91 | GATAATTCTG | 1 ± 0.024
92 | AGCTAGCCTT | 1.02 ± 0.028
93 | TAGGGGGTTG | 0.987 ± 0.027
94 | GTTGGGGGCG | 0.991 ± 0.052
95 | TTGCTTAGTT | 1.002 ± 0.0071
96 | AAGGTAGGCG | 0.987 ± 0.011
97 | CTTTAAGGGG | 1.01 ± 0.03
98 | AAGGCTAAAA | 1.016 ± 0.0059
99 | TATATCGTC | 1.19 ± 0.31
100 | ATGTAGCATG | 1.036 ± 0.0041

Row | Sequence | switch fluorescence ratio
101 | CCATGGGGGA | 1.01 ± 0.0019
102 | TCGGGTTGTG | 0.959 ± 0.031
103 | TAACTTTTTT | 1.02 ± 0.042
104 | ATAGGAAAGG | 0.999 ± 0.035
105 | CCCATTTAGG | 1.04 ± 0.084
106 | CCTTTCACTC | 1.124 ± 0.0035
107 | GTTGCTAAAT | 1 ± 0.03
108 | CAAAAGGGAT | 1.03 ± 0.017
109 | CGTCATGGGT | 1 ± 0.035
110 | TGTGGCACGG | 0.966 ± 0.018
111 | TTGGCTGGTG | 1.03 ± 0.04
112 | GGTATAATTG | 1.021 ± 0.0062
113 | GATAGGTATA | 1.01 ± 0.032
114 | TGATGTCCGT | 0.997 ± 0.02
115 | ACATTCCTGT | 1.05 ± 0.046
116 | TATTGTGAAT | 1 ± 0.014
117 | GGGGACACAG | 0.979 ± 0.015
118 | TTGGGAAAGA | 1.21 ± 0.34
119 | AGAGCTGGGG | 0.9849 ± 0.0079
120 | CTCATTTGGT | 0.989 ± 0.028
121 | AAGGGGGAAC | 1.002 ± 0.0052
122 | GGATCATGGT | 1.034 ± 0.007
123 | CGACGAGTAA | 1.32 ± 0.36
124 | CGTCCGGCAG | 1.67 ± 0.083
125 | TTTGGTTACA | 1.01 ± 0.04

Row | Sequence | switch fluorescence ratio
126 | CTCCTGTTTT | 1.02 ± 0.023
127 | ACTTAGGTTG | 1.04 ± 0.017
128 | GGCGTTGGGG | 1 ± 0.023
129 | GGATAAAAGG | 0.988 ± 0.011
130 | AAGTTGCGGA | 0.975 ± 0.019
131 | TGCTAGAACT | 0.972 ± 0.019
132 | ATCAGTATAT | 0.992 ± 0.021
133 | GGGGTTTGCT | 0.973 ± 0.033
134 | ATGAGCTGGG | 0.966 ± 0.015
135 | TAGGCGTGGT | 1.01 ± 0.017
136 | CGATTATTTG | 0.9786 ± 0.0053
137 | GGATTATTTG | 0.97982 ± 7.7e-05
138 | TCTTTACAAA | 1.03 ± 0.02
139 | ATCGTCATGG | 1.01 ± 0.012
140 | CAGAGATGTT | 1.01 ± 0.032
141 | GCAGCTGGTG | 1.098 ± 0.00094
142 | CAGGTTGCAC | 0.9894 ± 0.0069
143 | GTTCGGGGCT | 0.999 ± 0.029
144 | GTTTTCACAG | 0.992 ± 0.033
145 | GTTGTAACAT | 0.99541 ± 0.00081
146 | AGGTGTAGTG | 0.987 ± 0.016
147 | CTGTCTGGGT | 0.993 ± 0.029
148 | TTTGATGTGT | 0.997 ± 0.032
149 | TGGGGGGATG | 0.996 ± 0.011
150 | ACAGGACTTA | 1.09 ± 0.021

Row | Sequence | switch fluorescence ratio
151 | TTGCTAAAAG | 1.02 ± 0.028
152 | AAGAGGTCTC | 0.9681 ± 0.0023
153 | ATATTTGCCA | 1.02 ± 0.021
154 | AAAAGGCTAA | 1 ± 0.0037
155 | ATAGTTTAGG | 1.016 ± 0.0076
156 | GCTTTCAGGG | 1.01 ± 0.025
157 | CAGCTGGAGC | 1 ± 0.017
158 | AAGCATAGTT | 0.993 ± 0.011
159 | TTAAATGTTG | 1.01 ± 0.059
160 | ATGATTCCTT | 1 ± 0.03
161 | TGTGTAAGGT | 1.02 ± 0.025
162 | TTTTTTACTC | 1 ± 0.039
163 | GAGCTCGTGG | 1.03 ± 0.051
164 | GATTGTAATA | 1.01 ± 0.034
165 | CATAGGAACG | 0.955 ± 0.045
166 | ATGTTCGTCA | 0.988 ± 0.044
167 | CTTCATGGTC | 0.96 ± 0.017
168 | CGGCGGCACG | 0.998 ± 0.086
169 | ACCTGTGAGT | 0.9909 ± 0.0019
170 | GCGCCCATGA | 0.982 ± 0.043
171 | TGTTAAAAAT | 1.01 ± 0.029
172 | TAGAGTTTTA | 0.972 ± 0.022
173 | GTTGACAAAT | 1.036 ± 0.01
174 | TATGAAAATC | 0.983 ± 0.03
175 | TTCCAGATTC | 0.964 ± 0.013

Row | Sequence | switch fluorescence ratio
176 | TTTTGCCTCC | 1.09 ± 0.035
177 | GTACCGGGCA | 1.02 ± 0.026
178 | ATGGACCGTT | 1.02 ± 0.078
179 | GGGACGGGGA | 0.978 ± 0.026
180 | AGCGCAAAAT | 1.02 ± 0.069
181 | TGTTCTGGGG | 1.01 ± 0.019
182 | AACATGGTGC | 1.01 ± 0.011
183 | GCTGTTAGCA | 1.02 ± 0.034
184 | GCTGCTTTTT | 1.01 ± 0.041
185 | TGGCCATCCT | 1.62 ± 0.82
186 | ATGGATCACC | 1.019 ± 0.0027
187 | CGGGAGAACT | 0.987 ± 0.026
188 | TATTAATATT | 1.003 ± 0.0059
189 | TTTTTGTAGG | 0.995 ± 0.016
190 | TGGGGGGAG | 1.0137 ± 0.00093
191 | AACTATGCCT | 1.03 ± 0.037
192 | GTACTGCCTG | 1 ± 0.024
193 | ACTATGGGGC | 1.01 ± 0.081
194 | ATGATACATA | 1.02 ± 0.019
195 | GAAATTGGCA | 1.025 ± 0.004
196 | TACTTAGTGC | 1.02 ± 0.045
197 | ACCGGTTACA | 1.03 ± 0.042
198 | CCTCCAGGTT | 3.69 ± 3.2
199 | TTGTGTATCA | 0.993 ± 0.035
200 | TTTAATGA | 0.976 ± 0.011
